Results published in patent publication US20250282892A1 (published 2025).
One block for each binder: values may come before it.

Columns and labels:
HER3 His tag = HER3 His tag (UniProt P21860 20-643); assay: ELISA
EGFR His tag = EGFR His tag (UniProt P00533 25-645); assay: ELISA
[1] = target: HER3 tag free antigen (immobilized) (UniProt P21860 20-643); assay: ELISA; dual-binding sandwich: immobilized HER3-Fc + EGFR-His
[2] = target: EGFR tag free antigen (immobilized) (UniProt P00533 25-645); assay: ELISA; dual-binding sandwich: immobilized EGFR-Fc + HER3-His

EC50 (HER3 His tag): 0.0259 nM
EC50 (EGFR His tag): 0.013 nM
B1: BMX003-011 (humanized Patri-Cetu-Fc modified) (bispecific antibody)
heavy: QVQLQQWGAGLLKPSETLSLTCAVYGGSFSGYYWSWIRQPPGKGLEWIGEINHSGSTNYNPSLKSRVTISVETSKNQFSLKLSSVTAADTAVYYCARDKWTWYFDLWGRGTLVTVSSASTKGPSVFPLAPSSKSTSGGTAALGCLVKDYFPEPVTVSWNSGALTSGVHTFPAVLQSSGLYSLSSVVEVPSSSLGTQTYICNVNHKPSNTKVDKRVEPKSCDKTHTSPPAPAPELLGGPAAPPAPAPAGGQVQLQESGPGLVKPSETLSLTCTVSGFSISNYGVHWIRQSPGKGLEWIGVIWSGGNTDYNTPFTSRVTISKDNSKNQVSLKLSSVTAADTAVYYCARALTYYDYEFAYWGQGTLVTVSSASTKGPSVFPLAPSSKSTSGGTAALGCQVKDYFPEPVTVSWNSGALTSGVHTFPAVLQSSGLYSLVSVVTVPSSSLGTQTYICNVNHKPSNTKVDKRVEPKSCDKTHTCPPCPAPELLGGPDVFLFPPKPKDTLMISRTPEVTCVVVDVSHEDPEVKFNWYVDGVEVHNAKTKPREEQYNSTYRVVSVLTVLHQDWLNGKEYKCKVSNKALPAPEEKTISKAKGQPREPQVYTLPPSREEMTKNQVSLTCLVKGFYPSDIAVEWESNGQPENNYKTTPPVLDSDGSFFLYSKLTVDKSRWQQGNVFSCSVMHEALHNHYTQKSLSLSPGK
light 1: not shown
light 2: EIVLTQSPDFQSVTPKEKVTITCRASQSIGTNIHWYQQKPDQSPKLLIKYASESISGVPSRFSGSGSGTDFTLTINSLEAEDAATYYCQQNNNWPTTFGAGTKLEIKRTVAAPSVFIFPPSDEQLKSGTASVTCLLNNFYPREAKVQWKVDNALQSGNSQESVTEQDSKDSTYSLVSTLTLSKADYEKHKVYACEVTHQGLSSPVTKSFNRGEC

EC50 (HER3 His tag): 0.0223 nM
EC50 (EGFR His tag): 0.0155 nM
B2: BMX003-010 (humanized Patri-Cetu-Fc) (bispecific antibody)
heavy: not shown
light 1: not shown
light 2: B1 light 2

EC50 [1]: 0.55 nM
EC50 [2]: 170 nM
B3: Patri-Matu-Fc (bispecific antibody)
heavy: not shown
light 1: not shown
light 2: DIQMTQSPSSLSASVGDRVTITCSASSSVTYMYWYQQKPGKAPKLLIYDTSNLASGVPSRFSGSGSGTDYTFTISSLQPEDIATYYCQQWSSHIFTFGQGTKVEIKRTVAAPSVFIFPPSDEQLKSGTASVTCLLNNFYPREAKVQWKVDNALQSGNSQESVTEQDSKDSTYSLVSTLTLSKADYEKHKVYACEVTHQGLSSPVTKSFNRGEC
